One assay deals with T1, rKv1.1N (Rattus norvegicus, UniProt P10499).
T1 construct: expressed in transfected cells; host or cells: yeast HF7c (baits), mated with Y187 (fish)
The assay is described as follows: Yeast two-hybrid binding and specificity test, Kv1.1 N-terminal bait. As to the method: (§1) Two-hybrid screens were carried out essentially as described in Bartel, P. et al. (1993) “Using the Two-Hybrid System to Detect Polypeptide-Polypeptide Interactions” in Cellular Interactions in Development: A Practical Approach, Hartley, D. A. ed. Oxford University Press, Oxford, pp. 153-179, with a bait-library pair of rkv4.3 bait-rat mid brain library. A filter disk beta-galactosidase (beta-gal) assay was performed essentially as previously described (Brill et al. (1994) Mol. Biol. Cell. 5:297-312). Clones that were positive for both reporter gene activity (His and beta-galactosidase) were scored and fish, plasmids were isolated from yeast, transformed into E. coli strain KC8, DNA plasmids were purified and the resulting plasmids were sequenced by conventional methods (Sanger F. et al. (1977) PNAS, 74: 5463-67).
(§2) Positive interactor clones were subjected to a binding specificity test where they were exposed to a panel of related and unrelated baits by a mating scheme previously described (Finley R. L. Jr. et al. (1994) PNAS, 91(26):12980-12984). Briefly, positive fish plasmids were transformed into Y187 and the panel of baits were transformed into HF7c. Transformed fish and bait cells were streaked out as stripes on selective medium plates, mated on YPAD plates, and tested for reporter gene activity.

The target of the next assay is T2, rKv4.2N (Rattus norvegicus, UniProt Q63881).
T2 construct: the N-terminal domains of Kv4.3, Kv4.2 were expressed as “baits” (Kv4.3N, Kv4.2N, respectively); expressed in transfected cells; host or cells: yeast HF7c (baits), mated with Y187 (fish)
T2 sequence (Q63881 1-184 limits assumed): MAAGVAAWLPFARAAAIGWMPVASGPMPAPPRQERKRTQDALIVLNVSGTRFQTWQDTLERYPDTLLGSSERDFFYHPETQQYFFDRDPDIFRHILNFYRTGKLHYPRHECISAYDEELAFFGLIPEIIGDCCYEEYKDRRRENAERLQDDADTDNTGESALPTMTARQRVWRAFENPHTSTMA
The assay is described as follows: Yeast two-hybrid binding and specificity test, Kv4.2 N-terminal bait. As to the method:
as §1, §2

In a further assay the target is T3, rKv4.3N (Rattus norvegicus, UniProt Q62897).
T3 construct: expressed in transfected cells; host or cells: yeast HF7c (bait), mated with Y187 (fish)
T3 sequence (Q62897 1-180): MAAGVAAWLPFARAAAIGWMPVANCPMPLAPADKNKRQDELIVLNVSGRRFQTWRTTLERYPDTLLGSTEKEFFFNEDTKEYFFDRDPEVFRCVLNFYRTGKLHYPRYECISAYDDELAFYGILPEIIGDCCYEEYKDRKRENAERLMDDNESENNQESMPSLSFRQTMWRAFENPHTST
Kind of assay: Yeast two-hybrid binding and specificity test, Kv4.3 N-terminal bait. The settings on record: for preference between rKv4.3N and rKv4.2N in yeast two-hybrid assay: rKv4.3N versus rKv4.2N. As to the method: The first 180 amino acids of rKv4.3 (described in Serdio P. et al. (1996) J. Neurophys 75:2174-2179) were amplified by PCR and cloned in frame into pGBT9 resulting in plasmid pFWA2, (hereinafter “bait”). This bait was transformed into the two-hybrid screening strain HF7c and tested for expression and self-activation. The bait was validated for expression by Western blotting.
as §1, §2

From patent US7556938B1, “Nucleic acids encoding potassium channel interactors” (Millennium Pharmaceuticals, Inc., priority 1998, dated 2009) come the findings set out here.

T1 sequence (P10499 1-164 limits assumed): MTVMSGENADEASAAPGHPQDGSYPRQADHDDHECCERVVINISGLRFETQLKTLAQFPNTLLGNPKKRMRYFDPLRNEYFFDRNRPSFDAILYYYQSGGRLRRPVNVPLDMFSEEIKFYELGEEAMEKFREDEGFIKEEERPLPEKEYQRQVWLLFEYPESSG

B1: Rat 5p: identical to rat Calpactin I light chain or P10 (protein)
chain: MPSQMEHAMETMMLTFHRFAGEKNYLTKEDLRVLMEREFPGFLENQKDPLAVDKIMKDLDQCRDGKVGFQSFLSLVAGLIIACNDYFVVHMKQKK
On to B1, for which the “binding to rKv1.1N in yeast two-hybrid assay” value (“binding to rKv1.1N” below) with rKv1.1N is “does not bind”. Further, the “binding to rKv4.2N in yeast two-hybrid assay” value (from here on “binding to rKv4.2N”) with rKv4.2N was “binds”. In addition, the “binding to rKv4.3N in yeast two-hybrid assay” value (shortened to “binding to rKv4.3N”) with rKv4.3N is “binds”.

B2: Rat 19r: identical to Rat phosphatidylinositol (PTDINS) transfer protein alpha (protein)
chain: MVLLKEYRVILPVSVDEYQVGQLYSVAEASKNETGGGEGVEVLVNEPYEKDDGEKGQYTHKIYHLQSKVPTFVRMLAPEGALNIHEKAWNAYPYCRTVITNEYMKEDFLIKIETWHKPDLGTQENVHKLEPEAWKHVEAIYIDIADRSQVLSKDYKAEEDPAKFKSIKTGRGPLGPNWKQELVNQKDCPYMCAYKLVTVKFKWWGLQNKVENFIHKQEKRLFTNFHRQLFCWLDKWVDLTMDDIRRMEEETKRQLDEMRQKDPVKGMTADD
For the molecule B2, in the assay with rKv1.1N, the “binding to rKv1.1N” value is on record as “does not bind”. The “binding to rKv4.2N” value with rKv4.2N is recorded as “binds”. Also, in the assay with rKv4.3N, the “binding to rKv4.3N” value is “binds”; the “preference between rKv4.3N and rKv4.2N in yeast two-hybrid assay” value is recorded as “slight preference for rKv4.3N”.

B3: Rat 7q: identical to RAB2 (rat RAS-related protein) (protein)
chain: MAYAYLFKYIIIGDTGVGKSCLLLQFTDKRFQPVHDLTIGVEFGARMITIDGKQIKLQIWDTAGQESFRSITRSYYRGAAGALLVYDITRRDTFNHLTTWLEDARQHSNSNMVIMLIGNKSDLESRREVKKEEGEAFAREHGLIFMETSAKTASNVEEAFINTAKEIYEKIQEGVFDINNEANGIKIGPQHAATNASHGGNQGGQQAGGGCC
On to B3, for which, in the assay with rKv1.1N, the “binding to rKv1.1N” value is recorded as “does not bind”. The “binding to rKv4.2N” value in the assay with rKv4.2N is “binds”. In addition, in the assay with rKv4.3N, the “binding to rKv4.3N” value is “binds”; the “preference between rKv4.3N and rKv4.2N in yeast two-hybrid assay” value is given as “same strength”.
